From paper PMC12828031

What was measured:
EGFP-vinculin = EGFP-vinculin (UniProt P18206); assay: FRET or BRET; multiphoton TCSPC-FLIM of the donor on vinculin (EGFP or mTFP1) with mScarlet-I on RIAM as acceptor; transiently transfected MEF Vinc-/- fixed in 4% PFA; also with the ROCK inhibitor H1152 (no change)
mTFP1-vinculin = mTFP1-vinculin (UniProt P18206); assay: as above

Substance	FRET efficiency (EGFP-vinculin) [%]	FRET efficiency (mTFP1-vinculin) [%]
RIAM-mScarlet (RIAM C-terminally tagged with mScarlet-I) (from UniProt Q7Z5R6 1-666) (natural protein)	13.5	–
mScarlet-RIAM (RIAM N-terminally tagged with mScarlet-I) (from UniProt Q7Z5R6 1-666) (natural protein)	16.4	20
